Experimental data from the supplement of paper PMC9170038.

Tested on: MS2 coat protein
Assay: apparent KD of MS2 coat protein; designed switch direction (-1 OFF switch, 1 ON switch): -1; higher = weaker reporter binding
Procedure, shortened: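 For each design, the apparent KD is the median over clusters of curves fitted to normalised cluster fluorescence. Clusters held RNA switches with common flanks, transcribed on Illumina chips by stalled E. coli RNA polymerase. These were titrated with SNAP-549-labelled MS2 coat protein, doubling from 0.7 or 1.5 nM to 3 µM, without input, with 200 uM small-molecule ligand, or with an oligonucleotide input.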

[1] = Eterna round: R95, input ligand: FMN 200 uM
[2] = Eterna round: R95, input ligand: microRNA oligo, concentration not stated
[3] = Eterna round: R95, input ligand: none
[4] = input ligand: microRNA oligo, concentration not stated

Sequence	apparent KD of MS2 coat protein [1]	apparent KD of MS2 coat protein [2]	apparent KD of MS2 coat protein [3]	apparent KD of MS2 coat protein (input ligand: FMN 200 uM)	apparent KD of MS2 coat protein [4]	apparent KD of MS2 coat protein (input ligand: none)
AUCCUGUCAGGAUAUCUAGUUAAAUACAUGAGGAUCACCCAUGUCACUGGGCCGUCCUUAAGAGAAGGGACAGGCG [Edabe] (puzzle: Exclusion 5)	169 nM	34.5 nM	39.7 nM			
AUACCACGAGGAUAUCGUCUAUUUCACAUGAGGAUCACCCAUGUUAUCCUUGUUUCGUUUCGAGAAGGCGUGUUUU [JR_E5_Sub076] (puzzle: Exclusion 5)		43.8 nM				
GUCAGCUCGUGAGGAUAUACAUGCGUGCUUCGGCACGAAUUUAAGAUCACAUGAGGAUCACCCAUGUAGAAGGUACGAGCUGAC [ENG2/3-C1] (Eterna round: R96, puzzle: Exclusion NG 2)				632 nM	646 nM	387 nM
AAACCAAUAGUCAGGAUAUCUUAGUCGCGGAUGUGGGAGAAGGGACAUGAGGAUCACCCAUGUGGGAGUAUGUG [Eternabot (L1) Solution 19] (Eterna round: R97, puzzle: Brourd's mod of Exclusion 4)				116 nM		122 nM
ACAUGAGGAUCACCCAUGUUUAUUGGGUACUAUACUAUCAGCAAGGAUAUGCAAAUUUUUUUUACGCAGAAGGUGCAGGAACCU [JR_ExcNG3_Sub070] (Eterna round: R96, puzzle: Exclusion NG 3)					355 nM	
CAUGUUGACAGAGGAUAUGCAAUGUGAUUUAGGGUAGAAGGCUGAGACAUGAGGAUCACCCAUGUGGGUGCGUUCUAGCGACAA [Atmala] (Eterna round: R96, puzzle: Exclusion NG 1)				150 nM	19.4 nM	34 nM
GAGGCCAUAGGAUAUCUGUUACGGGACAUGAGGAUCACCCAUGUACUGGCAAGUCCUCGGAGAGAAGGAUGACUCU [Eternabot (L1) Solution 68] (Eterna round: R97, puzzle: Exclusion 5)				21.9 nM		18.3 nM
UAAUAAAGUGUGAGGAUAUGCUGGUCCUUAGAUCAGCAGAAGGCACAUGAGGAUCACCCAUGUAAUAUAUAAAU [Mat - Exclusion 4 - JL Mod - D56] (puzzle: Brourd's mod of Exclusion 4)	245 nM	22.8 nM	30.3 nM			
AUUUAAUUUAGCGAGAUCACAUGAGGAUCACCCAUGUAUAUAUAGGAUAUCAGCUCGUGUAGAGCUGAGAAGGAUAUAUACCGC [ExNG3/7-A3] (Eterna round: R96, puzzle: Exclusion NG 3)				108 nM	72.5 nM	88.1 nM
UUUAAUUUUUUUUUUUUACAAGCUUUUUGCUCGUCUUAUACAUGAGGAUCACCCAUGUGGGUGGGAAGUAAAUUAUC [JMF 56] (puzzle: Sensor v3, turn-off variant 2)	59 nM	12.6 nM	110 nM			
AGCAAGCAAUAGGAUAUGCCUGCAAGCUUGCAUGCAGAAGGAUUGACUUGAGGAUCACCCAAGUGGGCUCCUAA [Erbexe] (Eterna round: R97, puzzle: Exclusion 6)				319 nM		49.5 nM
GCUGGACGAGGAUAUGCAUUCGUGCUUCGGCACGUAAGGUCACAUGAGGAUCACCCAUGUAGAAGGUGUCCAGC [E2/6-B2] (Eterna round: R97, puzzle: Exclusion 2)				24.1 nM		18.4 nM
UGGUAGUUAGGAUAUACAUGAGGAUCACCCAUGUACGGGUGCAGAAAAGAAAGCCUUCGUAGAAGGAACACCUG [Aaredima] (Eterna round: R97, puzzle: Exclusion 3)				69.1 nM		62.6 nM
CCCUUUCAGGCAGGAUAUGUUCAUUUGUGAAUGGUGCCUACCUCACAUGAGGAUCACCCAUGUGGACAGAAGGGCCGGUGAAAA [Eternabot solution 26] (Eterna round: R96, puzzle: Exclusion NG 2)				120 nM	25.5 nM	25.7 nM
AAUACAAGCUAUUGAUCCCACAUGAGGAUCACCCAUGUAGCUGGCCGUGAGACCAGCUUUACAAUAGCUCGUCUUAU [Sensor-V1 #49] (Eterna round: R97, puzzle: Sensor, turn-off variant 1)				75.2 nM		71.3 nM
AGGAGUAGUAUCCGAUCCUACAUGAGGAUCACCCAUGUAGCUAGACGUGCACGCGAUGCUCGUCAGACUACCAGAUG [salish99_TOv1_r3_034] (puzzle: Sensor v3, turn-off variant 1)	99.4 nM	116 nM	143 nM			
CCAAACUGAGGAUAUACAUGAGGAUCACCCAUGUGCCCGCGGUCAUAUGUAGCCUAGUGUAGAAGGCAGAAAAC [Rearle] (Eterna round: R96, puzzle: Exclusion 3)				24.9 nM	41.8 nM	50.9 nM

Sequence	apparent KD of MS2 coat protein [1]	apparent KD of MS2 coat protein [2]	apparent KD of MS2 coat protein [3]	apparent KD of MS2 coat protein (input ligand: FMN 200 uM)	apparent KD of MS2 coat protein [4]	apparent KD of MS2 coat protein (input ligand: none)
GGAUUUCGAGGAUAUACACGCAAAUAGGUGUAUCCUUUAGCACAUGAGGAUCACCCAUGUAGAAGGCGGGUACU [Eternabot (L1) Solution 19] (Eterna round: R97, puzzle: Exclusion 2)				136 nM		150 nM
GACUAGUGAGGAUAUACUUGCAGUGUACCUCGGGUGAUCUCACUUGAGGAUCACCCAAGUAGAAGGCGCGAGGG [EX2 #23] (Eterna round: R97, puzzle: Exclusion 2)				13.1 nM		18.3 nM
AGGUGUAGAGGAUAUUGAGUUCUUUACAUGAGGAUCACCCAUGUCCUGGGCACCCAGGACCAAGAAGGCUACACCA [Omei Ex5 D31] (Eterna round: R97, puzzle: Exclusion 5)				38.4 nM		72.6 nM
UUAUCUACUGAGGAUAUUAUAUCACCCGACUGAUAAGAAGGCAGUACAUGAGGAUCACCCAUGUGGGUAGCCAU [Polaris10] (Eterna round: R97, puzzle: Exclusion 6)				43 nM		32.6 nM
GCUAGGAAUGUCAGGAUAUGCAGAUCCUUGGAUCUGCAGAAGGGACAUGAGGAUCACCCAUGUGCUAACCUAGC [Mat - Exclusion 4 - JL Mod - D7] (Eterna round: R97, puzzle: Brourd's mod of Exclusion 4)				110 nM		24.3 nM
UCACGGGAUUGAGGAUAUAUAUUAAUUUUUUUUAUAGAAGGCAAAAUGUUAGAUUAUUCACUAUACAUGAGGAUCACCCAUGUU [JR_ExcBG1_Sub076] (Eterna round: R96, puzzle: Exclusion NG 1)					18.2 nM	
AGGACAUGAGGAUCACCCAUGUAGUGAGGUGUAUCCGAAGACGAGGAUAUACAGAGGAAAUAUCUGUAGAAGGUGUUAUAAAUU [Atleusan] (Eterna round: R96, puzzle: Exclusion NG 3)				726 nM	229 nM	766 nM
UUAAAUCAUGUAGGAUAUGCAUAGCAAAGCUAUGCAGAAGGACAUGAGGAUCACCCAUGUGCUUGCGUCCGCGUACGGAUGCUA [Mat - Exclusion NG 1 - Mod of JL - D68] (Eterna round: R96, puzzle: Exclusion NG 1)				733 nM	90.5 nM	138 nM
UCAUCCGUAGGAUAUAAGAAACACAACAUGAGGAUCACCCAUGUGACCGUCAGUUAUUGCUUAGAAGGACGCGUAC [Eternabot (L1) Solution 70] (Eterna round: R97, puzzle: Exclusion 5)				131 nM		91.2 nM
CUCCUACAUGAGGAUCACCCAUGUCAGGAUAUCUCAGUGGUACCUAAAUUUACCACCCAGAGAAGGGACGUGCA [Diradireer] (puzzle: Exclusion 1)		11.9 nM				
GUAUGUGCGAGAGGAUAUCGUGUACAAAGUACACGAGAAGGCUUCACAUGAGGAUCACCCAUGUACCGAGGUGAAACACCUUGA [Omei Exc(NG)1 Bv8] (Eterna round: R96, puzzle: Exclusion NG 1)				934 nM	173 nM	270 nM
UGAGUGCUGCGAGGAUAUACAUGAGGAUCACCCAUGUUUACCUGUGAGGCAAAGCCUCACAGGUUGUAGAAGGCGCAGUACUCU [Mat - Exclusion NG 2 - Mod of JL - D41] (Eterna round: R96, puzzle: Exclusion NG 2)				16 nM	11.3 nM	18.6 nM
UCAUAACAUGAGGAUCACCCAUGUGAGGAUAUGAUACUAUGUACUUCGGUACAUAGUAUCAGAAGGCGCAUACU [Brourd's Ex1-3: 11 (nt 68 G)] (puzzle: Exclusion 1)	115 nM	55.2 nM	49.1 nM			
GCUUUUCUUUUCCUUUCUUACAUGAGGAUCACCCAUGUUUCUUGUCGUGCUCGCGUUGCUCGUCUGUCUGUCUGUUG [salish99_TOv1_r3_077(!)] (puzzle: Sensor v3, turn-off variant 1)	44.4 nM	35.1 nM	50.8 nM			
UUUGUUGUUGUGAGGAUAUCGUUGUUAUUUUGAAACGAGAAGGCACAUGAGGAUCACCCAUGUUUGUUGUUGGU [JR_BMOE4_Sub059] (puzzle: Brourd's mod of Exclusion 4)		48.8 nM				
AAACACGGAGGAUAUACAGGUUCAGGAAACCGAACCGGCUGACAUGAGGAUCACCCAUGUAGAAGGCCGAAAUA [EX2 A.23] (Eterna round: R97, puzzle: Exclusion 2)				19.5 nM		20.9 nM
